Measured values taken from patent US20200140532A1.
Values joined by “and” are separate entries in the source; they are usually repeats but may differ in a detail not shown here. Identical values can stand only once.

Columns and labels:
Experiment in all cases: periplasmic extract ELISA, control
[1] = target: recombinant dog Aggrecan G1-IGD-G2 (dog) (UniProt Q28343)
[2] = target: recombinant human Aggrecan G1-IGD-G2 (human) (UniProt P16112)
[3] = target: recombinant rat Aggrecan G1-IGD-G2 (rat) (UniProt P07897)
[4] = target: recombinant bovine Aggrecan G1-IGD-G2 (bovine) (UniProt P13608)
[5] = target: recombinant cynomolgus Aggrecan G1-IGD-G2 (cynomolgus)

OD 450 nm [1]: 0.06 OD 450 nm | OD 450 nm [2]: 0.05 OD 450 nm | OD 450 nm [3]: 0.06 OD 450 nm | OD 450 nm [4]: 0.05 OD 450 nm and 0.06 OD 450 nm | OD 450 nm [5]: 0.06 OD 450 nm and 0.05 OD 450 nm
Substance: cAbLys3 (VHH)
